Measurements from the RNAGym collection of RNA variant scans (doi:10.1073/pnas.2313332121).
Variants at the floor of the assay were thinned out.

B1: TPR 5TU (parent)
chain: GGAUCUUCUCGAUCUAACAAAAAAGACAAAUCUGCCACAAAGCUUGAGAGCAUCUUCGGAUGCAGAGGCGGCAGCCUUCGGUGGCGCGAUAGCGCCAACGUUCUCAACUAUGACACGCAAAACGCGUGCUCCGUUGAAUGGAGUUUAUCAUG

Variants of: B1
Assay: polymerase ribozyme fitness, log enrichment relative to wild type (log ratio); higher = more active; in vitro selection for triplet polymerase activity
Summary of the method: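 To select mutant libraries of each subunit of a heterodimeric triplet polymerase ribozyme, built by PCR and transcribed, each was annealed with a biotinylated primer, partner subunit and triplets, then incubated frozen at −7 °C. Extended constructs were gel-excised, captured on streptavidin beads and amplified by RT-PCR, in one round carried out in triplicate. Illumina sequencing of input and output libraries kept genotypes with ≥10 input reads and ≥1 read per output. Fitness is the base-2 logarithm of genotype enrichment relative to wild-type enrichment, from inverse-variance-weighted replicate averages.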

| Variant | polymerase ribozyme fitness (log ratio) |
| --- | --- |
| A41U U102C U146G | -3.93 |
| A41U U53G U56C U146C U151G | ≤ -4.2 |
| A41U C57G A120G | -2.19 |
| A41U C95U C99A U146G | -2.29 |
| G42A U82G A91G G133A U134C G140C | ≤ -4.2 |
| A41G U56A G58C C87A C108G G143C | ≤ -4.2 |
| G42U C85G G86C U90G | ≤ -4.2 |
| A41U A52U U55C A66U | ≤ -4.2 |
| G42C G46C G70C C95G U101G C129A C132G | ≤ -4.2 |
| A41U G92A | -3.1 |
| G42C C87U A113C C118G G141C | ≤ -4.2 |
| G42A C79U U139A U145A C149G | ≤ -4.2 |
| G42C U56A C79A | ≤ -4.2 |
| A41U A47U C99G A107U | ≤ -4.2 |
| G42A | -3.47 |
| G42U | -3.47 |
| G42C | -3.77 |
| C43G C125A U146A U148A | ≤ -4.2 |
| A41U G42C C76G | ≤ -4.2 |
| G42A A66U A89G U145A | ≤ -4.2 |
| G42C U53G G71A G92C C105G A137G | ≤ -4.2 |

| Variant | polymerase ribozyme fitness (log ratio) |
| --- | --- |
| G42U C116A U135G | ≤ -4.2 |
| G42A G46U U55G C72G | ≤ -4.2 |
| C43A C93G G133A | ≤ -4.2 |
| C43A C54U G71C C103U A115U G117U | ≤ -4.2 |
| A41G U61A A113U | -2.93 |
| G42C G143C | ≤ -4.2 |
| A41G U45C C57U G92A C108G | -3.34 |
| G42C U61A C75G C93A | ≤ -4.2 |
| A41U U55G | -0.663 |
| G42U G59A | ≤ -4.2 |
| A41U G46A U61A G84U C105U C118U | -3.26 |
| G42U C43G G86U G94U U144A | ≤ -4.2 |
| A41U G48U C57G C85U A120U | -3.4 |
| G42U G58A G70U A73G G84U C85U U144G A150U | ≤ -4.2 |
| G42C A52G U55A U56A G68A | ≤ -4.2 |
| G42C G48U U61A A110U | ≤ -4.2 |
| A41U C54U | -0.75 |
| C43A C63U C69A G94A C123A U134A G141C | ≤ -4.2 |
| G42A U61A G86A | ≤ -4.2 |
| G42C U111A | ≤ -4.2 |
| G42U C76A G81A G124C | ≤ -4.2 |

| Variant | polymerase ribozyme fitness (log ratio) |
| --- | --- |
| G42U G65C G70A C76A G86U U139G A142U | ≤ -4.2 |
| A41G U56G G58U G81A G84A C116U C149U | -1.86 |
| A41U G58A G81C | -0.606 |
| A41G U53A U55A A91U C99A U148A | ≤ -4.2 |
| G42U A91U | ≤ -4.2 |
| G42C A60G C79A C87U C105G C118A G124C | ≤ -4.2 |
| C43A U55A G92A | ≤ -4.2 |
| G42A G83C C96G C105U A110G U139C | ≤ -4.2 |
| G42C G46A C75G A91G U102G G133U G152A | ≤ -4.2 |
| C43A A52G G83A G124U G143A | ≤ -4.2 |
| A41U C131G | ≤ -4.2 |
| C43U A147U | -4.06 |
| G42U G48A U55A C118A A137G | ≤ -4.2 |
| A41U A60U G84A C95G C105U A110U | ≤ -4.2 |
| C43G A64C A73C C87A C105G | ≤ -4.2 |
| G42A G59U | -3.95 |
| G42U G92C | -3.85 |
| G42C U55A | -4.09 |
| G42C C95U | -4.14 |
| C43U A49G G84C G140U U146G | ≤ -4.2 |
| G42U A73C C95U A98C U144A | ≤ -4.2 |

| Variant | polymerase ribozyme fitness (log ratio) |
| --- | --- |
| A41U G141A A150G | -4.16 |
| G42C A49C A52C C75U C85U A91U | ≤ -4.2 |
| G42C C43U A60G C87A C108G A121G A142C | ≤ -4.2 |
| G42A C72U A91U | ≤ -4.2 |
| G42U C54G C57U G65A G92C A110C | ≤ -4.2 |
| A41U C96U A122C | -1.02 |
| C43G U45G U134C | ≤ -4.2 |
| G42A C54G A91U | ≤ -4.2 |
| C43U C96A C116G A137U | ≤ -4.2 |
| C43U C69U A91C A137C | ≤ -4.2 |
| G42U U55A | -4.17 |
| C43A U56A G67A G88A G112C C114U | ≤ -4.2 |
| C43G G50A C85U | ≤ -4.2 |
| A41U A49G G58C G92A C95A C123A | ≤ -4.2 |
| A41U G74U C75A A91G U145A U151G | ≤ -4.2 |
| A41U C85A | -3.35 |
| C43A C54U | ≤ -4.2 |
| A41U A47C G59U U61A A66U C85G A107C U148C | ≤ -4.2 |
| A41U G46A G59A G86C | ≤ -4.2 |
| A41U U56A | -0.813 |
